B1: MYBL2 (parent)
chain: FPNRTDQQCQYRWLRVLNPDLVKG

Variants of: B1
Assay: protein stability index of a GFP-peptide fusion (GPS, HEK-293T) (PSI 1-6); higher = more stable
Conditions: c terminus: a fixed tail appended
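Note: lentivirally expressed fusions sorted by FACS into six bins by GFP to DsRed ratio, PSI derived from sequencing read proportions per bin multiplied by bin number.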

| Variant | protein stability index |
| --- | --- |
| FPNRTDQQCQYRWCRVLNPDLVKG [L14C] | 2.02 |
| FPNRTDQQCQYRWDRVLNPDLVKG [L14D] | 2.22 |
| FPNRTDQQCQYRWERVLNPDLVKG [L14E] | 2.28 |
| FPNRTDQQCQYRWFRVLNPDLVKG [L14F] | 1.51 |
| FPNRTDQQCQYRWGRVLNPDLVKG [L14G] | 1.48 |
| FPNRTDQQCQYRWHRVLNPDLVKG [L14H] | 2.67 |
| FPNRTDQQCQYRWIRVLNPDLVKG [L14I] | 2.03 |
| FPNRTDQQCQYRWKRVLNPDLVKG [L14K] | 2.88 |
| FPNRTDQQCQYRWMRVLNPDLVKG [L14M] | 2.12 |
| FPNRTDQQCQYRWNRVLNPDLVKG [L14N] | 2.46 |
| FPNRTDQQCQYRWPRVLNPDLVKG [L14P] | 2.05 |
| FPNRTDQQCQYRWQRVLNPDLVKG [L14Q] | 2.08 |
| FPNRTDQQCQYRWRRVLNPDLVKG [L14R] | 2.44 |
| FPNRTDQQCQYRWSRVLNPDLVKG [L14S] | 2.35 |
| FPNRTDQQCQYRWTRVLNPDLVKG [L14T] | 1.64 |
| FPNRTDQQCQYRWVRVLNPDLVKG [L14V] | 2.21 |
| FPNRTDQQCQYRWWRVLNPDLVKG [L14W] | 1.4 |
| FPNRTDQQCQYRWYRVLNPDLVKG [L14Y] | 1.83 |
| FPNRTDQQCQYRWLAVLNPDLVKG [R15A] | 1.45 |
| FPNRTDQQCQYRWLCVLNPDLVKG [R15C] | 2.19 |
| FPNRTDQQCQYRWLDVLNPDLVKG [R15D] | 2.48 |
| FPNRTDQQCQYRWLEVLNPDLVKG [R15E] | 2.44 |
| FPNRTDQQCQYRWLFVLNPDLVKG [R15F] | 2.36 |
| FPNRTDQQCQYRWLGVLNPDLVKG [R15G] | 2.18 |

| Variant | protein stability index |
| --- | --- |
| FPNRTDQQCQYRWLHVLNPDLVKG [R15H] | 2.31 |
| FPNRTDQQCQYRWLIVLNPDLVKG [R15I] | 2.25 |
| FPNRTDQQCQYRWLKVLNPDLVKG [R15K] | 1.31 |
| FPNRTDQQCQYRWLLVLNPDLVKG [R15L] | 1.98 |
| FPNRTDQQCQYRWLMVLNPDLVKG [R15M] | 1 |
| FPNRTDQQCQYRWLNVLNPDLVKG [R15N] | 1.52 |
| FPNRTDQQCQYRWLPVLNPDLVKG [R15P] | 1.92 |
| FPNRTDQQCQYRWLQVLNPDLVKG [R15Q] | 2.15 |
| FPNRTDQQCQYRWLSVLNPDLVKG [R15S] | 2 |
| FPNRTDQQCQYRWLTVLNPDLVKG [R15T] | 1.45 |
| FPNRTDQQCQYRWLVVLNPDLVKG [R15V] | 2.2 |
| FPNRTDQQCQYRWLWVLNPDLVKG [R15W] | 2.96 |
| FPNRTDQQCQYRWLYVLNPDLVKG [R15Y] | 2.14 |
| FPNRTDQQCQYRWLRALNPDLVKG [V16A] | 1.87 |
| FPNRTDQQCQYRWLRCLNPDLVKG [V16C] | 1.97 |
| FPNRTDQQCQYRWLRDLNPDLVKG [V16D] | 2.99 |
| FPNRTDQQCQYRWLRELNPDLVKG [V16E] | 2.44 |
| FPNRTDQQCQYRWLRFLNPDLVKG [V16F] | 1.81 |
| FPNRTDQQCQYRWLRGLNPDLVKG [V16G] | 2.12 |
| FPNRTDQQCQYRWLRHLNPDLVKG [V16H] | 2.39 |
| FPNRTDQQCQYRWLRILNPDLVKG [V16I] | 1.57 |
| FPNRTDQQCQYRWLRKLNPDLVKG [V16K] | 2.02 |
| FPNRTDQQCQYRWLRLLNPDLVKG [V16L] | 1.77 |
| FPNRTDQQCQYRWLRMLNPDLVKG [V16M] | 1.78 |

| Variant | protein stability index |
| --- | --- |
| FPNRTDQQCQYRWLRNLNPDLVKG [V16N] | 2.05 |
| FPNRTDQQCQYRWLRPLNPDLVKG [V16P] | 2.72 |
| FPNRTDQQCQYRWLRQLNPDLVKG [V16Q] | 2.46 |
| FPNRTDQQCQYRWLRRLNPDLVKG [V16R] | 1.56 |
| FPNRTDQQCQYRWLRSLNPDLVKG [V16S] | 2.2 |
| FPNRTDQQCQYRWLRTLNPDLVKG [V16T] | 2.13 |
| FPNRTDQQCQYRWLRWLNPDLVKG [V16W] | 2.57 |
| FPNRTDQQCQYRWLRYLNPDLVKG [V16Y] | 1.72 |
| FPNRTDQQCQYRWLRVANPDLVKG [L17A] | 2.41 |
| FPNRTDQQCQYRWLRVCNPDLVKG [L17C] | 1.79 |
| FPNRTDQQCQYRWLRVDNPDLVKG [L17D] | 1.91 |
| FPNRTDQQCQYRWLRVENPDLVKG [L17E] | 2.32 |
| FPNRTDQQCQYRWLRVFNPDLVKG [L17F] | 1.41 |
| FPNRTDQQCQYRWLRVGNPDLVKG [L17G] | 2.45 |
| FPNRTDQQCQYRWLRVHNPDLVKG [L17H] | 1.6 |
| FPNRTDQQCQYRWLRVINPDLVKG [L17I] | 2.01 |
| FPNRTDQQCQYRWLRVKNPDLVKG [L17K] | 2.47 |
| FPNRTDQQCQYRWLRVMNPDLVKG [L17M] | 1.95 |
| FPNRTDQQCQYRWLRVNNPDLVKG [L17N] | 2.28 |
| FPNRTDQQCQYRWLRVPNPDLVKG [L17P] | 2.56 |
| FPNRTDQQCQYRWLRVQNPDLVKG [L17Q] | 2.45 |
| FPNRTDQQCQYRWLRVRNPDLVKG [L17R] | 2.28 |
| FPNRTDQQCQYRWLRVSNPDLVKG [L17S] | 2.78 |
| FPNRTDQQCQYRWLRVTNPDLVKG [L17T] | 1.63 |

| Variant | protein stability index |
| --- | --- |
| FPNRTDQQCQYRWLRVVNPDLVKG [L17V] | 2.04 |
| FPNRTDQQCQYRWLRVYNPDLVKG [L17Y] | 1.34 |
| FPNRTDQQCQYRWLRVLAPDLVKG [N18A] | 2.17 |
| FPNRTDQQCQYRWLRVLCPDLVKG [N18C] | 2.8 |
| FPNRTDQQCQYRWLRVLDPDLVKG [N18D] | 2.09 |
| FPNRTDQQCQYRWLRVLEPDLVKG [N18E] | 2.16 |
| FPNRTDQQCQYRWLRVLFPDLVKG [N18F] | 2.73 |
| FPNRTDQQCQYRWLRVLGPDLVKG [N18G] | 1.6 |
| FPNRTDQQCQYRWLRVLIPDLVKG [N18I] | 1.09 |
| FPNRTDQQCQYRWLRVLKPDLVKG [N18K] | 1.68 |
| FPNRTDQQCQYRWLRVLLPDLVKG [N18L] | 2.74 |
| FPNRTDQQCQYRWLRVLMPDLVKG [N18M] | 1.75 |
| FPNRTDQQCQYRWLRVLPPDLVKG [N18P] | 1.98 |
| FPNRTDQQCQYRWLRVLQPDLVKG [N18Q] | 1.97 |
| FPNRTDQQCQYRWLRVLRPDLVKG [N18R] | 3.02 |
| FPNRTDQQCQYRWLRVLSPDLVKG [N18S] | 2.17 |
| FPNRTDQQCQYRWLRVLTPDLVKG [N18T] | 2.19 |
| FPNRTDQQCQYRWLRVLVPDLVKG [N18V] | 1.61 |
| FPNRTDQQCQYRWLRVLWPDLVKG [N18W] | 2.05 |
| FPNRTDQQCQYRWLRVLYPDLVKG [N18Y] | 2.16 |
| FPNRTDQQCQYRWLRVLNADLVKG [P19A] | 1.81 |
| FPNRTDQQCQYRWLRVLNCDLVKG [P19C] | 2.5 |

— the supplement of paper PMC10567573
